Literature values, collected in PMC4031507.

Biological target: Cys+1 (UniProt position 252, VVKNKCLAEGT)

In the case of “RecA intein (Mtu RecA intein) with C-extein Cys+1 (Mycobacterium tuberculosis)”, the pKa is listed as 5.8.
